Measurements published in the nanobody polyreactivity screen of Harvey et al. (2022).

Test: yeast display, Sf9 membrane polyspecificity reagent, FACS + sequencing; frameworks hold sequencing errors
How it was run: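 A nanobody's polyreactivity label depends on the gate it was sorted from. Yeast display cells were stained with 10% biotinylated, detergent-solubilized Sf9 membrane reagent for 1 hour at 4 °C, enriched on streptavidin microbeads and sorted by FACS. The low and high (top ~1%) gates were set on anti-HA fluorescence for expression and streptavidin fluorescence for reagent binding.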

Sequence | polyreactivity (PSR sort gate)
QVQLVESGRGLVQEGGSLRLSCAASGSTFEPYAMGWYRQAPGKERELVAAITLTAGSTYYADSVKGRFTISRDNAKNTVYLQRNSLKPEDTAVYYCAAEFWLVEDDYWGQGTQVTVSS | low polyreactivity
QVQLVESGGGLVQAGGSLSLSCAATGLTFQQYAMGWYRQAPWKERELVAAITVSGGHTYYADSVKGRFTISRDNAKNTVYLQMNTLKPEDTAVYYCAAPPGYTGRYDYYYCGQGTQVTVSS | high polyreactivity
QDQLVESGGGLVQAGGSLRLSCAASGFILKYYAMGWYRQAPGKEREFVAAITVSGGSTYYADSVKGRFTISRDNAKNTVYLQMNSLKPVDTAVYYCNADYPRGGAGLPDYWGQGTQVTVSS | low polyreactivity
QVQLVESGGGLVQAGGSLRLSCAASGSIFYGNAMGGYRQAPGKERELVASITYSGGNTQYADSVKGRFTISRDNAKNTVYLQMNSLKPEVTAVYYCNARRYGVDTGWRQGLDSWGQGTQVTVSS | low polyreactivity
QVQLVESGGGLVQAGGSRRLSCAASGFTFQDYAMGWYRQAPGKERELVAAISKSGGRTYYADSVKRRFTISRDNAKKTVYLEMNSLKPEETAVYYCAALPLYSQDYDYWGPGTQVTVSS | high polyreactivity
QVQLVESGGGLVQAGGSLRLSCAASGSTLWYYAMGWYRQAPGKERELVADITSSGNTNYADSVKGRFTISRDNAKNTVYLQMNSLKPEDTAVYYCAADSANYQWYLSWQKDDYWGQGTQVTVSS | low polyreactivity
QVQLVDSGGGLVQAGGSLRLSCAASGSIIFYNAMGWYRQAPGKERELVAAISRGGNTNYADSVKGRFTISRDNAKNNFYLQMNSLKSEDTAVYYCNADLVQYWGRRRWYDYWGQGTQVTVSS | low polyreactivity
QVQLVESGGGLVQAGGSLRLSCAASGSTFHDYAMGLYRQAPGKERELVAAISNSGGSTYYADSVKGRFTISRDNAKNTVYLQMNSLKPEDTAVYYCAARKYVAGHKYIMNYWGQGTQVTVSS | low polyreactivity
QVQLVESGGGLVQAGGSLRLSCAASGSISVLNAMGWYRQAPGKERELVAAISRSGTRTYYADSVKGRFTLSRDNAKNTVYLQMNSLKPEDTAVYYCNALHRARLFGHYPYESWGQGTQVTVSS | high polyreactivity
QVQLVESGGGLVQAGGSLRLSCAASGRTFVYNAMGWYRQAPGKERELVATIRSSGGSTYYADSVKGRFTISRDNAKNTVYLQMNSLKPEDTAVYYCAARWRPYGKFYYWGQGTQVTVSS | high polyreactivity
QVLLVESGGGLVQAGGSLRLSCAASGSTLYDYAMGWYRQAPGKETELVAAINGSGGSTYYADSVKGRFTISRDNAKNTVYLQMNSLKPEDTAVYYCNAKRYGFFYWQGDYCGQGTQVTVSS | low polyreactivity
QVQLVESGGGLFQAGGSLRLSCAASGRIFHWYAMGWYRQAPGKERELHAAITDGDSTYYADSVKGRFTISRDNAKNTVYLQMNSLKPEDTAVYYCAADVVYSPYVFGGTRYYKYDYWGQVTQVTVSS | low polyreactivity
QVQLVESGGGLVQAGGSLRLSCAASGFTSNEYAMGWYRPAAGTERELVAAISKSGGRTYYADSVKGRFTISRDNAKNTVYLQMNSLKPEDTAVYYCGKRRNTTYYAGGFDYWGQGTKVTVSS | high polyreactivity
QVQLVESGGGLGQAGGSLRLSCAASGSIFTQYAMGWFRPAPGKERELVATISKSSGSTYYADSVKGRFTNSRDNAKNTVYLQMNSLKPEDTAVYDCAARYTRAYPYYYWGQGTQVTVSS | high polyreactivity
QVQLVESGGGLVQAGGSLRLSCAASGSTFYFNAMGWYRQAPGKERELVAGITYSGDSTYYADSVKGRFTISRDNAKNTVYLQMNSLKPEDTAVYYCAADVDYDLDGDYWGQGTQVTVSS | low polyreactivity
QVQLVESGGGLVQAGGSLRLSCASSALIFYWYPIGWYRQAPGKESELVAAISYGGTTTSYADSVKGRFTISRDNATNTVYLQMNSLKPEDTAVYYCAADWLYGHFQITGYPVGVDYWGQGTQVTVSS | low polyreactivity
QVQLVESGGGLVQAGGSLRLSCAASGFTFAYNAMGWYRQAPGKERELDAAINSSGGTTYYADSVKGRFTISRDNAKNTVYLQMNSLKPEDTAVYYCAAVYSTSYSGSFPGYDYWGQGTQVTVSS | low polyreactivity
QVQLVESGGGLVQAGGSLRLSCAASGHIFYAYAMGWYRQAPGKERELVASITYRGVSTYYADSVKGRFTISRDNAKNTVYLQMNSLKPEDTAVYYCAAGRSRYLWFGRDFDYWGQGTQVTVSS | low polyreactivity
QVQLVESGGGLVQAGGSLRLSCAPSGRTFRFYVMGWYRQAPGKERELVAAISRGGGSTYYADSVKGRFTISRDNAKNTVYLQMNSLKPEDTAVYYCAAKPYKTRSSYWGDYYWGQGTQVTVSS | high polyreactivity
QVQLVESGGGLVQAGGSLRLSCAASGSIFKTYAMGWYRQAPGKERELVAAISSGGSTYYADSVKGRFTISRDNAKNTVYLELNSLKPEDTAVYYCAADPWGAFVSFASYYYWGQGTQVTVSS | low polyreactivity
QVQLVESGGGLVQAGGSLRLSCAASGFTFYVYAMGWYRQAPGKERELVAAISRSGGSTYYADSVKGRFTISRDNAKNTVYLQMNSLKPEDTAVYYFAVVQRYWSPGIVPYVYWGQGTQVTVSS | high polyreactivity
QVQLVESGGGLVQAGGSLRLSCAASGSTFYANAMGWYRQAPGKERELVAAITSGGSTNYADSVKGRFTISRDNAKNTVYLQMNSLKPEDTAVYYCATPVNRERHAEDYWGQGTQVTVSS | low polyreactivity

Sequence | polyreactivity (PSR sort gate)
QVQLVESGGGVVQAGGSLRLSCAASGSIYSQYAMGWYRQAPGTERELVASISRRGGRTYYADSVKGRFTISRDNAKNTVYLQMNSLKPEETAVYYCAALDTAGPYNTLDIYDHWGQGTQVTVSS | high polyreactivity
QVQLVESGGGLVQAGGSLRLSCAASGFIFGYNAMGWYRQAPGKERELLAAITWIGGTTYYADSVKGRFTISRDNAKNTVYLQMNSLNPEDTAVYYCARQRSYGRYSYSYVYEYWGQGTLVTVSS | high polyreactivity
QVQLVESGGGLVQAGGSLRLSCAASGFTFRYYAMGWYRQAPGKERELVAAITRRSGSTYYADSVKGRFTISRDNAKNTVYLQMNSLKPEDTAVYYCAARASTIMGSWGQGTQVTVSS | high polyreactivity
QVQLVESGGGLVQAGGSLRLSCAASGFIFRVYAMGWYRQAPGKERELVAAISDSGGSTTYADSVKGRFTISRDNAKNTVYLQMNSLKPEDTAVYYCAADYDFFSLYLYDYWGQGTQVTVSS | low polyreactivity
QVQLVESGGGLVQAAGSLRLSCAASGRIFEIYAMGWYRQAPGKERELVAGITSVGSTNYADSVKGRFTISRDNAKNTVYLQMNSLKPVDTAVYYCAADTSVHSEVDYCGQGTQVTVSS | low polyreactivity
EEELVESGGGLVQAGGRLRLSCAASGRIFDYNAMGWYRQAPAKQRELVAVIDYSGDSTYYADSVKGRFTISRDNAKNTVYLQLISLKPEDTAVYYCNADSRYSYSDYGYWGQGTQVNVSS | low polyreactivity
QVQLVESGGGLVQAGGSLRLSCAASGITIAGYAMGWYRQAPGKERELVAAITIGGRTYYADSVKGRFTISRDNAKNTVYLQMNSLKPVDTAVYYCAAARGFWWYDYWGQGTQVTVSS | high polyreactivity
QVQLVESGGGLFQAGGSLRLSCAASGRIFSDYAMGWYRQAPGKERELVATITSGDSTNYADSVKGRFTISRDNAKNTVYLQMNSLKPEDTAVYYCNADRFADYDYWGQGTQVTVSS | low polyreactivity
QVQRVESGGGLVQAGGSLRLSCAASGLTFVYYAMGWYRQAPGKERELVAAISESGTSTYYADSVKGRFTISRDNAKNTVYLQMNSLKPEDTAVYYCAAKDSYYEMDYWGQGTQVTVSS | high polyreactivity
QVQLVESGGGLVQAGGSLRLSCAASGSTFPRNAMGWYRQAPGKERELVAAISGRGVRTYYADSVKGRFTISRDNAKNTVHLQMNSLKPEDTAVYYCAASRGKGVGLAYDYWGQGTQVTVSS | high polyreactivity
HVQLVESGGGLVQAGGSLRLSCAASGRIFLIYAMGWYRQAPGKEWELFAAIRSGGSTNYADSVKGRFTISRDNAKNTVYLLMNSLNPEDTAVYYCAVRSRVYPSRVKYDYWGQGTQVTVSS | high polyreactivity
QVQLVESGGGLVQAGGSLRLSCAASGSNITYYAMGWYRQAPGKERELVAAINLSGDITYYADSVKGRFTISRDNAKNTVYLQMNSLKPEDTAVYYCAAESASSRPYFNSIHRRDSWGQGTQVTVSS | low polyreactivity
QVQLVDSGGGLFQAGGSLRLSCAASGSTFYRYAKGWYRQAPGKERELVATITNSGGSTYYADSVKGRFTISRDNAKNTVYLPRNSLKPEDTAVYYCAAVGGRLRGDRGGYWGQGSQVTVSS | high polyreactivity
QFQLVESGGGLVQAGGSLRLSCAASGNTFYGYARGWYRQAPGKDRELVATMTGSGGDTYYADSVKGRFTISRDNANYTVYLPMNSLKPEDTAVYYCNAVEYYGGYPGTDYSYLAYNYWGQGTKVTVSS | low polyreactivity
QVPLVESGGGLVQAGGSLRLSCAASGSTLAGYTMGWYRQAPGKERELVAAITWSGSSTYYADSVKGRFTISRDNAKNTVYLQMNSLKPEDTAVYYCAATYYVYSGGNYLRYDSWGQGTQVTVSS | high polyreactivity
QVQLVESAGGLVQAGRSLRLSCAASGRNFLGNDMGWYRQAPGKERELVAAISYGDGSTYYADSVKGRFTISRDNAKNTVYLQMNSLKPEDTAVYYCAAERYTIPPIYDYWGQGTQVTVSS | low polyreactivity
QVQLVESGGGLVQAGGSLRLSCAASGSTFLLYDKGWYRQAPGKERELVAAITWSGGSTYYADSVKGRFTISRDNAKNTVYVQMNSLIPEDTAVYYCAADSLGDRYYYWGQGTQVTVSS | low polyreactivity
QVQLVESGGVLVQAGGSLRLSCAASGRIFAYYTMGWYRQAPGKEREMVAAISLSGSSTYYADSVKGRFTISRDNAKNNVYLHMNSLKPEDTAVYYCNADSYAYYSWYDYWGQGTQVTVSS | low polyreactivity
QVQLVESGVGLVQAGGSLSLSCAASGRIFPVYAMGWYRQAPGKERELVATISYSGSSTYYADSVKGRFTISRDNAKNNVYLLMNSLKPEDTAVYYCNADAFGPQCVQYYYWGQVTQVTVSS | low polyreactivity
QVQLVESGGVLVQAGGSLRLSCAASGITLTANAMGWYRQAPGKERELVAAISRGGSKYYADSVKGRFTISRDNAKNPGYLQMNSLKPEDTAVYYCNKAGGYWYAKRDYDYWGQVTQVTVSS | high polyreactivity
QVQLVESGGGLVQAGGSLRLSCAASGSTFNRNAMGWYRQAPGKERELVAAISWRGDSTSYADSVKGRFTISRDNAKNTVYLQMNSLKPEDTAVYYCAAYRVILYYLYDYWGQGTQVTVSS | low polyreactivity
